T1: human KLRG1 extracellular domain (ECD) (human, UniProt Q96E93 60-186, biotinylated in the Octet assay (site not stated))
T1 construct: Recombinant proteins were made as FC fusion or HIS tagged versions; also called Human-KLRG-ECD; human KLRG1 ECD
T1 sequence: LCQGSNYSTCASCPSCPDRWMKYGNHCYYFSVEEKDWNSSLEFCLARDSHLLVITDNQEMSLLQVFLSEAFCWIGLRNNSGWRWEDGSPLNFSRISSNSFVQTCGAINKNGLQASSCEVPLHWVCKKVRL

T2: cyno KLRG1 extracellular domain (ECD) (cynomolgus, biotinylated in the Octet assay (site not stated))
T2 construct: Recombinant proteins were made as FC fusion or HIS tagged versions; also called cynomolgus-KLRG1-ECD; cyno KRG1 ECD
T2 chain: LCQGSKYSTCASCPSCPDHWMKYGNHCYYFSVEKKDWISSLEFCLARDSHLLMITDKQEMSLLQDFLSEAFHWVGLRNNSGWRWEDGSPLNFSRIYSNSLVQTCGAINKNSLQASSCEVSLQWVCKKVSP

T3: full length human KLRG1 (cell-expressed) (human, UniProt Q96E93 1-195)
T3 construct: whole, on cells; also called CHO-human-KLRG1
T3 sequence (looked up): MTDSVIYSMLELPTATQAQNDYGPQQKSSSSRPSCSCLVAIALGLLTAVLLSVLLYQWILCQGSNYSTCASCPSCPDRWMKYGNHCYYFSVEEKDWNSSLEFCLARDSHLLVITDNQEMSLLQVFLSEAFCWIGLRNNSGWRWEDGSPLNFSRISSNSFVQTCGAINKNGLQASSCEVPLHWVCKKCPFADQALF

T4: full length cynomolgus KLRG1 (cell-expressed) (cynomolgus, UniProt A0A2K5WAP9 1-186)
T4 construct: whole, on cells; also called CHO-cynomolgus-KLRG1; cyno KLRG1
T4 sequence: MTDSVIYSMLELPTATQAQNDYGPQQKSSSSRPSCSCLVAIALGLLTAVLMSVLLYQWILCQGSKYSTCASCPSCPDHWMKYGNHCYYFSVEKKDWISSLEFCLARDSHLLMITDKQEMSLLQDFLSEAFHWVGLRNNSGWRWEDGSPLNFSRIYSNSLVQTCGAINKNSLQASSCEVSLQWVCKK

T5: SPLNFSRISSNSFVQ
T5 peptide: SPLNFSRISSNSFVQ

T6: WEDGSPLNFSRISSN
T6 peptide: WEDGSPLNFSRISSN


Tests used:
[1] = target: T1, human KLRG1 extracellular domain (ECD); experiment: Octet BLI, biotinylated antigen on streptavidin sensor, antibody in solution, 1:1 fit
Description: (§1) Binging kinetics of humanized antibodies for human and cynomolgus KLRG1 were determined by Octet® Systems (ForteBio) measurement. The Octet® platform includes instruments, biosensors, reagents, and assay kits for analysis of biomolecular interactions in 96- and 384-well microplates for use in real-time, label-free analysis for determination of affinity, kinetics, and concentration. The experimental set-up includes immobilizing biotinylated recombinant antigen (Human-KLRG-ECD or cynomolgus-KLRG1-ECD) on a streptavidin Octet® sensor to produce antigen loaded sensors. […] Thereafter, the sensors can be exposed to a solution of 1× phosphate buffered saline (PBS) buffer devoid of antibody for approximately 600 seconds to observe dissociation kinetics (kdis). The resulting data can then be fitted to a 1:1 binding kinetics model using, for example, ForteBio analysis software to calculate the KD. Kinetic binding parameters derived by this method are summarized in Table 8 for three humanized antibodies.

[2] = target: T2, cyno KLRG1 extracellular domain (ECD); experiment: as above
Description: as §1

[3] = target: T2, cyno KLRG1 extracellular domain (ECD); experiment: hybridoma screening for binding to cyno KLRG1 ECD
[4] = target: T3, full length human KLRG1 (cell-expressed); experiment: FACS on CHO cells expressing full length human KLRG1, anti-mouse detection
Description: (§2) Binding of anti-KLRG1 monoclonal antibodies to cells that expressed human and cynomolgus-KLRG1 was carried out by FACS. Chinese hamster ovary (CHO) cells were stably transfected to express full length human KLRG1 (CHO-human-KLRG1) and cynomolgus KLRG1 (CHO-cynomolgus-KLRG1). […] Table 7 summarizes the EC50 binding data measured for selected antibodies.

[5] = target: T4, full length cynomolgus KLRG1 …; experiment: FACS on CHO cells expressing full length cynomolgus KLRG1, anti-mouse detection
Description: as §2

SPLNFSRISSNSFVQ = target: T5, SPLNFSRISSNSFVQ; experiment: peptide mapping: ABC_G1D03 on overlapping KLRG1 peptides, signal per peptide
WEDGSPLNFSRISSN = target: T6, WEDGSPLNFSRISSN; experiment: as above

Row | Binder | Kd [1] [nM] | koff [1] [s⁻¹] | kon [1] [M⁻¹ s⁻¹] | Kd [2] [nM] | koff [2] [s⁻¹] | kon [2] [M⁻¹ s⁻¹] | binding result [3] | EC50 [4] [nM] | EC50 [5] [nM] | binding result (SPLNFSRISSNSFVQ) | binding result (WEDGSPLNFSRISSN)
1 | ABC_HG1D03 (antibody, V domains shown, The printed VK entry ends at '...FGGGTKV' (appears cut short of the usual end of the domain)) VH: EVQLVQSGAEVKKPGASVKVSCKASGYTFTDHNMHWVKQATGQGLEWFGFINPNTGVTRYNQKFQGRVTLTINKAISTAYLELSSLRSEDTAVYYCARDYYGSAWFAYWGQGTLVTVSS VL: not shown | 0.156 | 5.91e-05 | 380000 | 0.0609 | 3.82e-05 | 627000 | – | – | – | – | –
2 | ABC_G1D06 (antibody, V domains shown, Mouse hybridoma monoclonal antibody) VH: QVQLQQSGAELVRPGASVTLSCKASGYKFSDYEIHWVKQTPVYGLEWIGALEPATGGTAYNPNFKGKAILTADKSSTTAYMELRSLTSEDSAVYYCSMHLAVYWGQGTLVTVSA VL: not shown | – | – | – | – | – | – | binds | 72.5 | 3.4 | – | –
3 | ABC_G1D04 (antibody, V domains shown, Mouse hybridoma monoclonal antibody) VH: EVQLQQSGPELVKPGSSLMMSCKSSGYTFTDYNIHWVKQSHGKRLEWIGFIDPKNGGTLYSEKFKDKATLTINKSSSTAYMELRSLTSEDSAVFYCAPDYYGSAWFAYWGQGTLVTVSA VL: DIVMSQSPSSLTVSVGENVTMSCKSSQNLLYTSNQKNYLAWYQQKPGHSPKLLISWASTRESGVPDRFTGSGSGTDFTLTITSVKAEDLAVFYCQQYYHYPTFGGGTKLEIK | – | – | – | – | – | – | binds | 213 | 7.2 | – | –
4 | ABC_HG1D02 (antibody, V domains shown, The printed VK entry ends in 'RTV' (start of the constant kappa domain)) VH: QVQLVQSGAEVKKPGSSVKVSCKASGYAFTNYFIEWVRQRPGQGLEWMGVINPGSGGTNYNEKFKGRVTITADKSSSTAYMELSSLRSEDTAVYYCARPGHFDYWGQGTTVTVSS VL: EIVLTQSPTTLSLSPGERATLSCSASSSISSNYLHWYQQKPGFAPRLLIYKTSNLASGIPPRFSGSGSGTDFTLTISRLEPEDFAVYYCQQGNSIPRTFGQGTKVEIKR | 0.0567 | 3.07e-05 | 541000 | 0.388 | 0.000142 | 367000 | – | – | – | – | –

The remaining binders from weak to strong by EC50 [4], led by results:

Row | Kd [1] [nM] | koff [1] [s⁻¹] | kon [1] [M⁻¹ s⁻¹] | Kd [2] [nM] | koff [2] [s⁻¹] | kon [2] [M⁻¹ s⁻¹] | binding result [3] | EC50 [4] [nM] | EC50 [5] [nM] | binding result (SPLNFSRISSNSFVQ) | binding result (WEDGSPLNFSRISSN) | Binder
5 | – | – | – | – | – | – | binds | 9.11 | 10.1 | – | – | ABC_G1D02 (antibody, V domains shown, Mouse hybridoma monoclonal antibody) VH: QVQLQQSGAELVRPGTSVKVSCKASGYAFTNYFIEWIKQRPGQGLEWIGVINPGSGGTNYNEKFKGKATLTADKSSSTAYMQLSSLTSEDSAVYFCTRPGHFDYWGQGTTLTVSS VL: EIVLTQSPTTMAASPGEKITITCSASSSISSNYLHWYQQKPGFSPKLLIYKTSNLASGVPPRFSGSGSGTSYSLTIGTMEAEDVATYYCQQGNSIPRTFGGGTKLEIK
6 | – | – | – | – | – | – | binds | 6.3 | 8.63 | binds | binds | ABC_G1D03 (antibody, V domains shown, Mouse hybridoma monoclonal antibody) VH: EVQLQQSGPELVKPGASVKMSCKTSGYTFTDHNMHWLKQSHGKGLEWFGFINPNTGVTRYNQKFNGKATLTINKSSSTAYLDLRSLTSEDSAVYYCTRDYYGSAWFAYWGQGTLVTVSA VL: DIVMSQSPASQTVSVGEKVTMSCKSSQTLLYSSDQKNYLAWYQQKPGQSPKLLIYWASTRESGVPDRFTGSGSGTDFTLTISSVKAEDLAVYYCQQYYNYPTFGGGTKLEIK
7 | – | – | – | – | – | – | binds | 5.15 | 5.93 | – | – | ABC_G1D05 (antibody, V domains shown, Mouse hybridoma monoclonal antibody) VH: QVQLKQSGPGLVQPSQSLSITCTVSGFSLTTHGVHWVRQSPGKGLEWLGVIWSGGSTDYNAAFISRLSIRKDNSKSQVFFKMNSLQTNDTAIYYCARLRLPAMDYWGQGTSVTVSS VL: QIVLTQSPTIMSASLGERVTMTCTASSSVSSTYLHWYQQKPGSSPKLWIYSTSNLASGVPARFSGSGSGTSYSLTISSMEAEDAATYYCHQYHRSPLSFGAGTKLELK
8 | – | – | – | – | – | – | – | 4.87 | 3.44 | – | – | ABC_G1D01 (antibody, V domains shown, Mouse hybridoma monoclonal antibody) VH: EVQLQQSGPELVKPGASVKMSCKASGYTFTDYNIHWVKQSHGKSLEWIGFFNPKNGVTINNQNFKGKAALTVNKSSSTAYMELRRLTSEDSAVYYCARDYYGTAWFAYWGQGTLVTVSA VL: DIVMSQSPSSLAVSVGEKVTMSCRSSQSLLYSSNQKNYLAWYQQKPGQSPKLLIYWASTRESGVPDRFTGSGSGTDFTLTISSVKAEDLAVYYCQQFYSYPTFGGGTKLEIK

Reference: patent publication US20200325233A1 (ABCURO, published 2020)
